Data from patent publication US20150045540A1 (published 2015).

Columns and labels:
[1] = molecular target: Hepatocyte Growth Factor (HGF), human (human, UniProt P14210 32-728); assay: ELISA
[2] = molecular target: T1, Placenta Growth Factor (PlGF), human (human, UniProt P49763 21-149); assay: ELISA
T1 chain: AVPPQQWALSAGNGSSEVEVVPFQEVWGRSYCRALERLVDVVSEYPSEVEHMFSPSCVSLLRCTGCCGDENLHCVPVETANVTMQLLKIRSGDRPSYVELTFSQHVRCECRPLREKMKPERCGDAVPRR

Chain of Hepatocyte Growth Factor (HGF), human (P14210 32-728): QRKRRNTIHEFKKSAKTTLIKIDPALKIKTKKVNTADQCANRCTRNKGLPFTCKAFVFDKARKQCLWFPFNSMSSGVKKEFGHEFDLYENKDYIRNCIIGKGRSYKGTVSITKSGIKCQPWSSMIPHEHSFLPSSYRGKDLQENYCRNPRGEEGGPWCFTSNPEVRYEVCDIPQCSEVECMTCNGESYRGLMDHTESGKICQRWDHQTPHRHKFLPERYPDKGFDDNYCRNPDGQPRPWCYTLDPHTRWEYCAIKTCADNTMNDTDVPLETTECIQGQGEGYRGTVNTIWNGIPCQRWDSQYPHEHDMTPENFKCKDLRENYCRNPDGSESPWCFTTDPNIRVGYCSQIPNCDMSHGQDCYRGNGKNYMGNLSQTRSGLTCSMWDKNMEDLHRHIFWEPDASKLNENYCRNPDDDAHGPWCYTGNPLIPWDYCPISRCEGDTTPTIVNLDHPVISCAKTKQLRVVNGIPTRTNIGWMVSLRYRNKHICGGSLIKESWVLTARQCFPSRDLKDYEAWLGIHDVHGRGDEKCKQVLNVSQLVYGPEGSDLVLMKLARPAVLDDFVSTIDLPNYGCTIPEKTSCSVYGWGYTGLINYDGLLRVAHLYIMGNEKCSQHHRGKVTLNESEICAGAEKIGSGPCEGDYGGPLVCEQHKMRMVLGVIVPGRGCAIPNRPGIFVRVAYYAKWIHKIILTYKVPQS

| EC50 [1] [nM] | EC50 [2] [nM] | Binder |
| --- | --- | --- |
| 0.048 | 0.046 | HC 10/SLC 8 (antibody) chain 1: GQGTLVTVSSASTKGPSVFPQPVLHQPPAMSSALGTTIRLTCTLRNDHDIGVYSVYWYQQRPGHPPRFLLRYFSQSDKSQGPQVPPRFSGSKDVARNRGYLSISELQPEDEAMYYCAMGARSRCWPRGFQSKHNSVTHVFGSGTQLTVLSQPKATPSVTLFPPSSEELQANKATLVCLMNDFYPGILTVTWKADGTPITQGVEMTTPSKQSNNKYAASSYLSLTPEQWRSRRSYSCQVMHEGSTVEKTVAPAECS chain 2: MSWAPVLLMLFVYCTGCGPQPVLHQPPAMSSALGTTIRLTCTLRNDHDIGVYSVYWYQQRPGHPPRFLLRYFSQSDKSQGPQVPPRFSGSKDVARNRGYLSISVTHVFGSGTQLTVLSQPKATPSQVQLVQ |
| 0.051 | 0.197 | HC 5/SLC 2 (antibody) chain 1: GQGTLVTVSSASTKGQPVLHQPPAMSSALGTTIRLTCTLRNDHDIGVYSVYWYQQRPGHPPRFLLRYFSQSDKSQGPQVPPRFSGSKDVARNRGYLSISELQPEDEAMYYCAMGARSRCWPRGFQSKHNSVTHVFGSGTQLTVLSQPKATPSVTLFPPSSEELQANKATLVCLMNDFYPGILTVTWKADGTPITQGVEMTTPSKQSNNKYAASSYLSLTPEQWRSRRSYSCQVMHEGSTVEKTVAPAECS chain 2: MSWAPVLLMLFVYCTGCGPQPVLHQPPAMSSALGTTIRLTCTLRNDHDIGVYSVYWYQQRPGHPPRFLLRYFSQSDKSQGPQVPPRFSGSKDVARNRGYLSISVTHVFGSGTQLTVLSQQVQLVQ |
| 0.053 | 0.052 | HC 7/SLC 15 (antibody) chain 1: GQGTLVTVSSASTKGPSQPVLHQPPAMSSALGTTIRLTCTLRNDHDIGVYSVYWYQQRPGHPPRFLLRYFSQSDKSQGPQVPPRFSGSKDVARNRGYLSISELQPEDEAMYYCAMGARSRCWPRGFQSKHNSVTHVFGSGTQLTVLSQPKATPSVTLFPPSSEELQANKATLVCLMNDFYPGILTVTWKADGTPITQGVEMTTPSKQSNNKYAASSYLSLTPEQWRSRRSYSCQVMHEGSTVEKTVAPAECS chain 2: MSWAPVLLMLFVYCTGCGPQPVLHQPPAMSSALGTTIRLTCTLRNDHDIGVYSVYWYQQRPGHPPRFLLRYFSQSDKSQGPQVPPRFSGSKDVARNRGYLSISVTHVFGSGTQLTVLSQPKATPSVTGGGGSQVQLVQ |
| 0.059 | 0.157 | HC 5/SLC 6 (antibody) chain 1: GQGTLVTVSSASTKGQPVLHQPPAMSSALGTTIRLTCTLRNDHDIGVYSVYWYQQRPGHPPRFLLRYFSQSDKSQGPQVPPRFSGSKDVARNRGYLSISELQPEDEAMYYCAMGARSRCWPRGFQSKHNSVTHVFGSGTQLTVLSQPKATPSVTLFPPSSEELQANKATLVCLMNDFYPGILTVTWKADGTPITQGVEMTTPSKQSNNKYAASSYLSLTPEQWRSRRSYSCQVMHEGSTVEKTVAPAECS chain 2: MSWAPVLLMLFVYCTGCGPQPVLHQPPAMSSALGTTIRLTCTLRNDHDIGVYSVYWYQQRPGHPPRFLLRYFSQSDKSQGPQVPPRFSGSKDVARNRGYLSISVTHVFGSGTQLTVLSQPKATQVQLVQ |
| 0.056 | 0.157 | HC 3/SLC 8 (antibody) chain 1: GQGTLVTVSSASTQPVLHQPPAMSSALGTTIRLTCTLRNDHDIGVYSVYWYQQRPGHPPRFLLRYFSQSDKSQGPQVPPRFSGSKDVARNRGYLSISELQPEDEAMYYCAMGARSRCWPRGFQSKHNSVTHVFGSGTQLTVLSQPKATPSVTLFPPSSEELQANKATLVCLMNDFYPGILTVTWKADGTPITQGVEMTTPSKQSNNKYAASSYLSLTPEQWRSRRSYSCQVMHEGSTVEKTVAPAECS chain 2: MSWAPVLLMLFVYCTGCGPQPVLHQPPAMSSALGTTIRLTCTLRNDHDIGVYSVYWYQQRPGHPPRFLLRYFSQSDKSQGPQVPPRFSGSKDVARNRGYLSISVTHVFGSGTQLTVLSQPKATPSQVQLVQ |
| 0.06 | 0.191 | HC 6/SLC 4 (antibody) chain 1: GQGTLVTVSSASTKGPQPVLHQPPAMSSALGTTIRLTCTLRNDHDIGVYSVYWYQQRPGHPPRFLLRYFSQSDKSQGPQVPPRFSGSKDVARNRGYLSISELQPEDEAMYYCAMGARSRCWPRGFQSKHNSVTHVFGSGTQLTVLSQPKATPSVTLFPPSSEELQANKATLVCLMNDFYPGILTVTWKADGTPITQGVEMTTPSKQSNNKYAASSYLSLTPEQWRSRRSYSCQVMHEGSTVEKTVAPAECS chain 2: MSWAPVLLMLFVYCTGCGPQPVLHQPPAMSSALGTTIRLTCTLRNDHDIGVYSVYWYQQRPGHPPRFLLRYFSQSDKSQGPQVPPRFSGSKDVARNRGYLSISVTHVFGSGTQLTVLSQPKQVQLVQ |
| 0.067 | 0.22 | HC 3/SLC 4 (antibody) chain 1: GQGTLVTVSSASTQPVLHQPPAMSSALGTTIRLTCTLRNDHDIGVYSVYWYQQRPGHPPRFLLRYFSQSDKSQGPQVPPRFSGSKDVARNRGYLSISELQPEDEAMYYCAMGARSRCWPRGFQSKHNSVTHVFGSGTQLTVLSQPKATPSVTLFPPSSEELQANKATLVCLMNDFYPGILTVTWKADGTPITQGVEMTTPSKQSNNKYAASSYLSLTPEQWRSRRSYSCQVMHEGSTVEKTVAPAECS chain 2: MSWAPVLLMLFVYCTGCGPQPVLHQPPAMSSALGTTIRLTCTLRNDHDIGVYSVYWYQQRPGHPPRFLLRYFSQSDKSQGPQVPPRFSGSKDVARNRGYLSISVTHVFGSGTQLTVLSQPKQVQLVQ |
| 0.056 | 0.161 | HC 2/SLC 6 (antibody) chain 1: GQGTLVTVSSASQPVLHQPPAMSSALGTTIRLTCTLRNDHDIGVYSVYWYQQRPGHPPRFLLRYFSQSDKSQGPQVPPRFSGSKDVARNRGYLSISELQPEDEAMYYCAMGARSRCWPRGFQSKHNSVTHVFGSGTQLTVLSQPKATPSVTLFPPSSEELQANKATLVCLMNDFYPGILTVTWKADGTPITQGVEMTTPSKQSNNKYAASSYLSLTPEQWRSRRSYSCQVMHEGSTVEKTVAPAECS chain 2: MSWAPVLLMLFVYCTGCGPQPVLHQPPAMSSALGTTIRLTCTLRNDHDIGVYSVYWYQQRPGHPPRFLLRYFSQSDKSQGPQVPPRFSGSKDVARNRGYLSISVTHVFGSGTQLTVLSQPKATQVQLVQ |
| 0.07 | 0.153 | HC 10/SLC 4 (antibody) chain 1: GQGTLVTVSSASTKGPSVFPQPVLHQPPAMSSALGTTIRLTCTLRNDHDIGVYSVYWYQQRPGHPPRFLLRYFSQSDKSQGPQVPPRFSGSKDVARNRGYLSISELQPEDEAMYYCAMGARSRCWPRGFQSKHNSVTHVFGSGTQLTVLSQPKATPSVTLFPPSSEELQANKATLVCLMNDFYPGILTVTWKADGTPITQGVEMTTPSKQSNNKYAASSYLSLTPEQWRSRRSYSCQVMHEGSTVEKTVAPAECS chain 2: MSWAPVLLMLFVYCTGCGPQPVLHQPPAMSSALGTTIRLTCTLRNDHDIGVYSVYWYQQRPGHPPRFLLRYFSQSDKSQGPQVPPRFSGSKDVARNRGYLSISVTHVFGSGTQLTVLSQPKQVQLVQ |
| 0.058 | 0.175 | HC 2/SLC 4 (antibody) chain 1: GQGTLVTVSSASQPVLHQPPAMSSALGTTIRLTCTLRNDHDIGVYSVYWYQQRPGHPPRFLLRYFSQSDKSQGPQVPPRFSGSKDVARNRGYLSISELQPEDEAMYYCAMGARSRCWPRGFQSKHNSVTHVFGSGTQLTVLSQPKATPSVTLFPPSSEELQANKATLVCLMNDFYPGILTVTWKADGTPITQGVEMTTPSKQSNNKYAASSYLSLTPEQWRSRRSYSCQVMHEGSTVEKTVAPAECS chain 2: MSWAPVLLMLFVYCTGCGPQPVLHQPPAMSSALGTTIRLTCTLRNDHDIGVYSVYWYQQRPGHPPRFLLRYFSQSDKSQGPQVPPRFSGSKDVARNRGYLSISVTHVFGSGTQLTVLSQPKQVQLVQ |
| 0.054 | 0.249 | HC 3/SLC 5 (antibody) chain 1: GQGTLVTVSSASTQPVLHQPPAMSSALGTTIRLTCTLRNDHDIGVYSVYWYQQRPGHPPRFLLRYFSQSDKSQGPQVPPRFSGSKDVARNRGYLSISELQPEDEAMYYCAMGARSRCWPRGFQSKHNSVTHVFGSGTQLTVLSQPKATPSVTLFPPSSEELQANKATLVCLMNDFYPGILTVTWKADGTPITQGVEMTTPSKQSNNKYAASSYLSLTPEQWRSRRSYSCQVMHEGSTVEKTVAPAECS chain 2: MSWAPVLLMLFVYCTGCGPQPVLHQPPAMSSALGTTIRLTCTLRNDHDIGVYSVYWYQQRPGHPPRFLLRYFSQSDKSQGPQVPPRFSGSKDVARNRGYLSISVTHVFGSGTQLTVLSQPKAQVQLVQ |
| 0.061 | 0.089 | HC 10/SLC 6 (antibody) chain 1: GQGTLVTVSSASTKGPSVFPQPVLHQPPAMSSALGTTIRLTCTLRNDHDIGVYSVYWYQQRPGHPPRFLLRYFSQSDKSQGPQVPPRFSGSKDVARNRGYLSISELQPEDEAMYYCAMGARSRCWPRGFQSKHNSVTHVFGSGTQLTVLSQPKATPSVTLFPPSSEELQANKATLVCLMNDFYPGILTVTWKADGTPITQGVEMTTPSKQSNNKYAASSYLSLTPEQWRSRRSYSCQVMHEGSTVEKTVAPAECS chain 2: MSWAPVLLMLFVYCTGCGPQPVLHQPPAMSSALGTTIRLTCTLRNDHDIGVYSVYWYQQRPGHPPRFLLRYFSQSDKSQGPQVPPRFSGSKDVARNRGYLSISVTHVFGSGTQLTVLSQPKATQVQLVQ |
| 0.052 | 0.066 | HC 5/SLC 9 (antibody) chain 1: GQGTLVTVSSASTKGQPVLHQPPAMSSALGTTIRLTCTLRNDHDIGVYSVYWYQQRPGHPPRFLLRYFSQSDKSQGPQVPPRFSGSKDVARNRGYLSISELQPEDEAMYYCAMGARSRCWPRGFQSKHNSVTHVFGSGTQLTVLSQPKATPSVTLFPPSSEELQANKATLVCLMNDFYPGILTVTWKADGTPITQGVEMTTPSKQSNNKYAASSYLSLTPEQWRSRRSYSCQVMHEGSTVEKTVAPAECS chain 2: MSWAPVLLMLFVYCTGCGPQPVLHQPPAMSSALGTTIRLTCTLRNDHDIGVYSVYWYQQRPGHPPRFLLRYFSQSDKSQGPQVPPRFSGSKDVARNRGYLSISVTHVFGSGTQLTVLSQPKATPSVQVQLVQ |
| 0.06 | 0.229 | HC 6/SLC 2 (antibody) chain 1: GQGTLVTVSSASTKGPQPVLHQPPAMSSALGTTIRLTCTLRNDHDIGVYSVYWYQQRPGHPPRFLLRYFSQSDKSQGPQVPPRFSGSKDVARNRGYLSISELQPEDEAMYYCAMGARSRCWPRGFQSKHNSVTHVFGSGTQLTVLSQPKATPSVTLFPPSSEELQANKATLVCLMNDFYPGILTVTWKADGTPITQGVEMTTPSKQSNNKYAASSYLSLTPEQWRSRRSYSCQVMHEGSTVEKTVAPAECS chain 2: MSWAPVLLMLFVYCTGCGPQPVLHQPPAMSSALGTTIRLTCTLRNDHDIGVYSVYWYQQRPGHPPRFLLRYFSQSDKSQGPQVPPRFSGSKDVARNRGYLSISVTHVFGSGTQLTVLSQQVQLVQ |
